PMC3377065 (EMBO Molecular Medicine, 2011)
Values joined by “and” are separate entries in the source; they are usually repeats but may differ in a detail not shown here. Equal values may be shown once.

Biological target: the molecule itself
Test: non-reducing SDS-PAGE and Western blot

Protein | stoichiometry N
human CMG2 C255A, V5-tagged (receptor) not shown | 3 and 4
human CMG2 C218A, V5-tagged (receptor) not shown | 2
human CMG2 C230A–C315A double mutant, V5-tagged (receptor) not shown | 2
human CMG2 C39A, V5-tagged (receptor) not shown | 2
human CMG2 C279A, V5-tagged (receptor) not shown | 3 and 4
human CMG2 C315A, V5-tagged (receptor) not shown | 3 and 4
human CMG2 C230A, V5-tagged (receptor) not shown | 3 and 4
